Where no end group is shown, it is not given here.

Broadly, the IC50 is the midpoint of a concentration-inhibition curve. Read a low IC50 as greater potency in that assay.

Test [1] concerns the target T1, human TGR12 (Homo sapiens, UniProt Q96LB1).
T1 construct: expressed in transfected cells
T1 sequence (Q96LB1 1-330): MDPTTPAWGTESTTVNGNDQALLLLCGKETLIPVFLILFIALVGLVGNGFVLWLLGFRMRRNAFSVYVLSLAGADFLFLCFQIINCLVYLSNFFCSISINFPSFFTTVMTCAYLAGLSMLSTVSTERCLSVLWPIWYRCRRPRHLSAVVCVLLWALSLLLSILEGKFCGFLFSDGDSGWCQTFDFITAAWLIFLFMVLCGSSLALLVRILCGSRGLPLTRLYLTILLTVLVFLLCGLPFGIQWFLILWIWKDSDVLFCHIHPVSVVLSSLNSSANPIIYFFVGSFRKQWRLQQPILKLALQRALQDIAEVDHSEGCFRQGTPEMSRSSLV
The experiment in a line: MAPK (ERK1/2) activation in human TGR12-expressed CHO cells (western blotting). It counts as cell-based. The conditions noted are these: CHO-TGR12, PTX 0.1 μg/mL 4 hours before the assay.
Description: CHO/dhfr^− cells (hereinafter CHO) were incubated in α-MEM (Invitrogen) containing 10% fetal calf serum. […] CHO-TGR12 was incubated in nucleic acid-free α-MEM (Invitrogen) containing 10% dialyzed fetal calf serum.
The cells were prepared as follows. […] After centrifugation, the deposited cells were suspended in the medium at 2×10^5 cells/ml and 1 mL each was plated in a 12-well cell culture dish. After incubation overnight in a CO2 incubator, the medium was aspirated and washed with PBS. […] Pertussis toxin (hereinafter PTX) was added at a final concentration of 0.1 μg/mL 4 hours before the assay.
Activation of the cells was performed as follows. The medium was aspirated and washed with PBS.
Detection by SDS-PAGE and western blotting was performed as follows. After resolving on a 10% Bis-Tris gel (Invitrogen), the proteins were transferred onto Immune-Blot PVDF membrane (BIO-RAD). The membrane was blocked in Block Ace (Dainippon Pharmaceutical), incubated at room temperature for an hour using a primary antibody (phospho-p42/p44 MAP kinase (Thr202/Thr204) antibody (CST) or p42/p44 MAP kinase antibody (CST)) and then incubated at room temperature for an hour using a secondary antibody (anti-rabbit IgG (CST)). The membrane after the antibody reaction was visualized by chemiluminescence with ECL PLUS (Amersham Biosciences), followed by detection and image analysis using LAS1000 (FUJI FILM).

For test [2], the target named is T2, TGR12-GFP (fused protein of human TGR12 and GFP, encoded by the DNA of SEQ ID NO: 31), stably expressed on … (human, UniProt Q96LB1 1-330).
T2 sequence: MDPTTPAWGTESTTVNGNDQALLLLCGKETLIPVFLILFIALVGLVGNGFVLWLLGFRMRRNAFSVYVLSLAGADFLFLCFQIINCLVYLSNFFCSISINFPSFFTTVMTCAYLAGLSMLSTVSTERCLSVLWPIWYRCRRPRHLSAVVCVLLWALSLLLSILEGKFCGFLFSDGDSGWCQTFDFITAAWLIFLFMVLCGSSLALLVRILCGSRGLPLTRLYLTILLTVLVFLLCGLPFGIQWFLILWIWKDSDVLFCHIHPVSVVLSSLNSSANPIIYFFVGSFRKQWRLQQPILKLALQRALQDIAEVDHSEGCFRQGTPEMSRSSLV
Description: cell-based or functional assay.

For test [3], the target named is T3, human TGR12 (untagged) (human, UniProt Q96LB1 1-330).
T3 sequence: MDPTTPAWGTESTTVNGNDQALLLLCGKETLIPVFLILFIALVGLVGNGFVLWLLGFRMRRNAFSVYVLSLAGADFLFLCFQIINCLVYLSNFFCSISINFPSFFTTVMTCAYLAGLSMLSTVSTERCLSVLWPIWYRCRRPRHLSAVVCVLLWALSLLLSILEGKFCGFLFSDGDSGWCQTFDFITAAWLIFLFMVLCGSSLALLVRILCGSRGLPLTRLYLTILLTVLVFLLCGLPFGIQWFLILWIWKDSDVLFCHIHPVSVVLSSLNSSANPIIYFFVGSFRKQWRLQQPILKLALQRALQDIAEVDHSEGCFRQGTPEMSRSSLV
Description: cell-based or functional assay.

For test [4], the target named is T4, TGR12-GFP (fused protein of human TGR12 and GFP, encoded by the DNA of SEQ ID NO: 45), stably expressed on … (human, UniProt Q96LB1 1-330).
T4 construct: also called TGR12-GFP expression CHO cell line; not shown: GFP (Wako Pure Chemical) fused after the C-terminus of TGR12
T4 sequence: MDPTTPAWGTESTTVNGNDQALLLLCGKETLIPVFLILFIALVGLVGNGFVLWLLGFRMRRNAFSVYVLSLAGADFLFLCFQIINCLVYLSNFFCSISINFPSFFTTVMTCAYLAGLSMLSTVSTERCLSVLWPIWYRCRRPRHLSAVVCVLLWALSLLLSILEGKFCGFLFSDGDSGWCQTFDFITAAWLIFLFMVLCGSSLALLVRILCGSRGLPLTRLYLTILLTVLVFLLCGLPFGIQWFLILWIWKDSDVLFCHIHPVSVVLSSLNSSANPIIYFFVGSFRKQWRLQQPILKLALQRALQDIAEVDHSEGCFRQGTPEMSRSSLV
Description: competition with 200 pM [125I]-rCST14 (Y0) on CHO-TGR12GFP cells, Hill plot. The method, then: The binding assay using CHO-TGR12GFP was performed as follows. […] After incubation overnight, the cells were washed 3 times with ice-chilled assay buffer (MEM-α, 20 mM HEPES (pH 7.4), 0.05% BSA) and 250 μL of the assay buffer was added thereto. […] After washing 3 times with 500 μL of the assay buffer, the cells were lysed in 250 μL of 0.5N NaOH and the lysate was recovered for measurement of the radioactivity.
Based on the above, non-specific binding was estimated as the activity of 10 μM rat cortistatin-14 and the IC₅₀ value of each peptide was obtained from Hill plot analysis.

Turning to Pertussis toxin [PTX], in test [1], the “attenuation by pretreatment of phosphorylation of ERK1/2 with ATP” value is recorded as “not observed” and the “effect of pretreatment on phosphorylation of ERK1/2 by substance P” value is listed as “attenuated”.

B1: human VIP (vasoactive intestinal polypeptide) (peptide, UniProt P01282 125-152, looked up)
peptide: HSDAVFTDNYTRLRKQMAVKKYLNSILN
modifications: not fully specified; ends and bridges not checked
notes: domain: VIP; also called vasoactive intestinal peptide
Consider B1, for which, in test [2], the “EC50 in the calcium increasing effect on CHO-TGR12” value was approximately 305 nM; the “maximum activity in the calcium increasing effect (FLIPR), CHO-TGR12, at 0.3 nM” value was 56 fluorescence intensity; the “maximum activity in the calcium increasing effect (FLIPR), CHO-TGR12, at 3 nM” value was 60 fluorescence intensity; the “maximum activity in the calcium increasing effect (FLIPR), CHO-TGR12, at 30 nM” value was determined as 16 fluorescence intensity. Moreover, in test [2], the “maximum activity in the calcium increasing effect (FLIPR), CHO-TGR12, at 300 nM” value is 11200 fluorescence intensity and the “maximum activity in the calcium increasing effect (FLIPR), CHO-TGR12, at 3000 nM” value was 24000 fluorescence intensity. In test [3], the “EC50 in the degranulation on LAD 2” value was approximately 105 nM; the “degranulation of LAD 2 (beta-hexosaminidase release, % of total) at 10 nM” value was 1.5%; the “degranulation of LAD 2 (beta-hexosaminidase release, % of total) at 30 nM” value stood at 4%; the “degranulation of LAD 2 (beta-hexosaminidase release, % of total) at 100 nM” value amounted to 36.7%. Besides, in test [3], the “degranulation of LAD 2 (beta-hexosaminidase release, % of total) at 300 nM” value is 63.9% and the “degranulation of LAD 2 (beta-hexosaminidase release, % of total) at 3 µM” value worked out at 76.1%. The molecule further had an IC50 in test [4] of 2040 nM.

As for HSDGIFTDSYSRYRKQMAVKKYLAAVL (peptide, UniProt P18509 132-158, looked up, not fully specified; ends and bridges not checked, domain: PACAP-27) [human PACAP27 (pituitary adenylate cyclase activating polypeptide 27)], in test [2], the “EC50 in the calcium increasing effect on CHO-TGR12” value is approximately 93 nM; the “maximum activity in the calcium increasing effect (FLIPR), CHO-TGR12, at 0.3 nM” value is 48 fluorescence intensity; the “maximum activity in the calcium increasing effect (FLIPR), CHO-TGR12, at 3 nM” value is 58 fluorescence intensity; the “maximum activity in the calcium increasing effect (FLIPR), CHO-TGR12, at 30 nM” value stood at 939 fluorescence intensity. In addition, in test [2], the “maximum activity in the calcium increasing effect (FLIPR), CHO-TGR12, at 300 nM” value amounted to 23000 fluorescence intensity and the “maximum activity in the calcium increasing effect (FLIPR), CHO-TGR12, at 3000 nM” value came to 23700 fluorescence intensity. Moreover, in test [3], the “EC50 in the degranulation on LAD 2” value is approximately 51 nM; the “degranulation of LAD 2 (beta-hexosaminidase release, % of total) at 10 nM” value is 2.6%; the “degranulation of LAD 2 (beta-hexosaminidase release, % of total) at 30 nM” value came out at 19.6%; the “degranulation of LAD 2 (beta-hexosaminidase release, % of total) at 100 nM” value came to 59.4%. Further, in test [3], the “degranulation of LAD 2 (beta-hexosaminidase release, % of total) at 300 nM” value turned out to be 71.1%; the “degranulation of LAD 2 (beta-hexosaminidase release, % of total) at 3 µM” value stood at 69.1%; the “maximum activity in the calcium increasing effect (FLIPR), RBL2H3-TGR12, at 1 nM” value is 40 fluorescence intensity; the “maximum activity in the calcium increasing effect (FLIPR), RBL2H3-TGR12, at 10 nM” value is 29 fluorescence intensity. Moreover, in test [3], the “maximum activity in the calcium increasing effect (FLIPR), RBL2H3-TGR12, at 100 nM” value came out at 5300 fluorescence intensity; the “maximum activity in the calcium increasing effect (FLIPR), RBL2H3-TGR12, at 1 µM” value was determined as 11500 fluorescence intensity; the “maximum activity in the calcium increasing effect (FLIPR), RBL2H3-TGR12, at 10 µM” value was 12700 fluorescence intensity. In test [4], the IC50 worked out at 264 nM.

Consider HSDGIFTDSYSRYRKQMAVKKYLAAVLGKRYKQRVKNK (peptide, UniProt P18509 132-169, looked up, not fully specified; ends and bridges not checked, domain: PACAP-38) [human PACAP38 (pituitary adenylate cyclase activating polypeptide 38)], for which, in test [2], the “EC50 in the calcium increasing effect on CHO-TGR12” value was approximately 161 nM; the “maximum activity in the calcium increasing effect (FLIPR), CHO-TGR12, at 0.3 nM” value worked out at 287 fluorescence intensity; the “maximum activity in the calcium increasing effect (FLIPR), CHO-TGR12, at 3 nM” value came out at 410 fluorescence intensity; the “maximum activity in the calcium increasing effect (FLIPR), CHO-TGR12, at 30 nM” value came to 195 fluorescence intensity. For the same molecule, in test [2], the “maximum activity in the calcium increasing effect (FLIPR), CHO-TGR12, at 300 nM” value stood at 23000 fluorescence intensity and the “maximum activity in the calcium increasing effect (FLIPR), CHO-TGR12, at 3000 nM” value is 23300 fluorescence intensity. Further, in test [3], the “EC50 in the degranulation on LAD 2” value was approximately 51 nM; the “degranulation of LAD 2 (beta-hexosaminidase release, % of total) at 10 nM” value is 7.4%; the “degranulation of LAD 2 (beta-hexosaminidase release, % of total) at 30 nM” value worked out at 24.8%; the “degranulation of LAD 2 (beta-hexosaminidase release, % of total) at 100 nM” value came out at 49.4%. In addition, in test [3], the “degranulation of LAD 2 (beta-hexosaminidase release, % of total) at 300 nM” value was found to be 65.8%; the “degranulation of LAD 2 (beta-hexosaminidase release, % of total) at 1 µM” value amounted to 68.9%; the “degranulation of LAD 2 (beta-hexosaminidase release, % of total) at 3 µM” value came to 63.3%. The IC50 in test [4] came to 47 nM.

(Values after US20100068208A1, “Degranulation inhibitor” (priority 2005, published 2010).)
